Laboratory results: IntAct's records for PubMed 15644435

Target: ush_drome ush (UniProt Q9VPQ6)
Sequence (Q9VPQ6 whole entry): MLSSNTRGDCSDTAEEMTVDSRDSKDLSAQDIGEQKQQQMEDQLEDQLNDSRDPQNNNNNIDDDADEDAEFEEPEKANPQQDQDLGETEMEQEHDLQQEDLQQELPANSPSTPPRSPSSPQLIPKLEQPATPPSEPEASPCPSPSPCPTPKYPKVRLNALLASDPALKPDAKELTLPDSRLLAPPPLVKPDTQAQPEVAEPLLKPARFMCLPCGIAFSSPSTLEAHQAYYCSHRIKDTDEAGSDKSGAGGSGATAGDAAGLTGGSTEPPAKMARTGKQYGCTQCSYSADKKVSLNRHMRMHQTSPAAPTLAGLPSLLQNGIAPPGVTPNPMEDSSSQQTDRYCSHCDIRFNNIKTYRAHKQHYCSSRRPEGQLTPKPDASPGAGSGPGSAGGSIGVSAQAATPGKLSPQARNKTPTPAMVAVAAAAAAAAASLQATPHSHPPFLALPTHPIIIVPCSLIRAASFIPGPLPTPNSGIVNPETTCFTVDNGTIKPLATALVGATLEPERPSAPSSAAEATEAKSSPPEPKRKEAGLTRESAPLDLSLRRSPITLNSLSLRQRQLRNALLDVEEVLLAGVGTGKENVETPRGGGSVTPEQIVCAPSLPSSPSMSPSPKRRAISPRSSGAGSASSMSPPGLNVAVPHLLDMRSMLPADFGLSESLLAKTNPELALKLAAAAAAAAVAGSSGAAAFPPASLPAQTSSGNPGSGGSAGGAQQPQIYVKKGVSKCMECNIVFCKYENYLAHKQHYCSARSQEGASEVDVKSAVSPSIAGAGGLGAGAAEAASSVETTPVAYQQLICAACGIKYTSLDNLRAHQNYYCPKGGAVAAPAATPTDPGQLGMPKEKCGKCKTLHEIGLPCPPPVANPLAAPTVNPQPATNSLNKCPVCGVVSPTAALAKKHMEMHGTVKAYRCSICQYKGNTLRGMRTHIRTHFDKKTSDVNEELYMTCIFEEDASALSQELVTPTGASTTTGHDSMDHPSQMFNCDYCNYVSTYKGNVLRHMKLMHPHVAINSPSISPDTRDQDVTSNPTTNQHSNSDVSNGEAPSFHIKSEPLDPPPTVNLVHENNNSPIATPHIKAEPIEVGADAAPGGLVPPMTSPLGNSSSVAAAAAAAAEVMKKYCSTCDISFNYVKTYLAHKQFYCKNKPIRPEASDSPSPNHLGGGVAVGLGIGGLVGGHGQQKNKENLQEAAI

Sequence of Erythroid transcription factor (Mus musculus), P17679 D218G (P17679 whole entry D218G): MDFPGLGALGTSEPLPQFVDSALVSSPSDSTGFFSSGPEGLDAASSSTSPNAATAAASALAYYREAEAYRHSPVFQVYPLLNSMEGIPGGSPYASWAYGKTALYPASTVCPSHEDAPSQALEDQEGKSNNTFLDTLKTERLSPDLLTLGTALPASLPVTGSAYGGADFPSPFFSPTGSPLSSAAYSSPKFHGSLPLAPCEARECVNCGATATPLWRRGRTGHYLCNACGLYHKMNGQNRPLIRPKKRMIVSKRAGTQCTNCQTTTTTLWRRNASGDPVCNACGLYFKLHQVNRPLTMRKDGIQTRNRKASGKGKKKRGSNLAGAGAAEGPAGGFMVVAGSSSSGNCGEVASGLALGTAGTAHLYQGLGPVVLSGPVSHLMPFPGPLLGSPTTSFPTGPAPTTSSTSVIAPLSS
Sequence of Erythroid transcription factor (Mus musculus), P17679 V205M (P17679 whole entry V205M): as the sequence (P17679 whole entry D218G) above, with V205M, G218D counted along it
Sequence of Erythroid transcription factor (Mus musculus), P17679 R216Q (P17679 whole entry R216Q): as the sequence (P17679 whole entry D218G) above, with R216Q, G218D counted along it
Sequence of Erythroid transcription factor (Mus musculus), P17679 G208S (P17679 whole entry G208S): as the sequence (P17679 whole entry D218G) above, with G208S, G218D counted along it

| effect of a mutation on the interaction | Substance |
| --- | --- |
| with no effect | Erythroid transcription factor (Mus musculus), P17679 D218G |
| disrupting interaction strength | Erythroid transcription factor (Mus musculus), P17679 G208S |
| with no effect | Erythroid transcription factor (Mus musculus), P17679 R216Q |
| disrupting interaction strength | Erythroid transcription factor (Mus musculus), P17679 V205M |
